Assay results reported in patent US7192728B2, “Screening assays for agents that alter inhibitor of apoptosis (IAP) protein regulation of caspase activity” (The Burnham Institute, priority 1997, dated 2007).

T1: caspase-3 (Homo sapiens, UniProt P42574)
T1 construct: to produce the 17–20 kDa mature, fully processed large subunit of the active caspase-3 enzyme; a smaller, fully processed, subunit of about 11 kDa; His6; made in house; host or cells: E. coli BL21(DE3)pLysS
T1 sequence (P42574 29-175 limits assumed): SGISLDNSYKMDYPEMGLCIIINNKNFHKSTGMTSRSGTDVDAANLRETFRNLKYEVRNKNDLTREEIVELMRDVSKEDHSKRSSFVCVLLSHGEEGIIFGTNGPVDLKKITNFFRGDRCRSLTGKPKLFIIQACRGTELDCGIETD
T1 sequence (P42574 176-277 limits assumed): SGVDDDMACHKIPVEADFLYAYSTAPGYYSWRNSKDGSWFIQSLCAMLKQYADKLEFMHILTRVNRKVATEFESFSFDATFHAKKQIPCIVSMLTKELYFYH

T2: caspase-7 (Homo sapiens, UniProt P55210)
T2 construct: Purified active caspase concentrations ranged from 0.1 nM to 10 nM; His6; made in house; host or cells: E. coli BL21(DE3)pLysS
T2 sequence (P55210 24-198 limits assumed): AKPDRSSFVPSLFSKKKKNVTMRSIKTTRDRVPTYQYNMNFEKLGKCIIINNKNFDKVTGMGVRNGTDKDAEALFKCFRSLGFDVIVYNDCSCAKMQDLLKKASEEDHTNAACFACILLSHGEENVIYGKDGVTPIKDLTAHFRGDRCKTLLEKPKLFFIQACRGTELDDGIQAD
T2 sequence (P55210 207-303 limits assumed): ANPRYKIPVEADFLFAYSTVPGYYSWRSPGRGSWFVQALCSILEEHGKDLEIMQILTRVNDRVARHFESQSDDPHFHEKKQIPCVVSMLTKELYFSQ

B1: NAIP: neuronal apoptosis inhibitory protein, GST construct (protein, UniProt Q13075 1-1403, looked up)
Baculoviral IAP …: MATQQKASDERISQFDHNLLPELSALLGLDAVQLAKELEEEEQKERAKMQKGYNSQMRSEAKRLKTFVTYEPYSSWIPQEMAAAGFYFTGVKSGIQCFCCSLILFGAGLTRLPIEDHKRFHPDCGFLLNKDVGNIAKYDIRVKNLKSRLRGGKMRYQEEEARLASFRNWPFYVQGISPCVLSEAGFVFTGKQDTVQCFSCGGCLGNWEEGDDPWKEHAKWFPKCEFLRSKKSSEEITQYIQSYKGFVDITGEHFVNSWVQRELPMASAYCNDSIFAYEELRLDSFKDWPRESAVGVAALAKAGLFYTGIKDIVQCFSCGGCLEKWQEGDDPLDDHTRCFPNCPFLQNMKSSAEVTPDLQSRGELCELLETTSESNLEDSIAVGPIVPEMAQGEAQWFQEAKNLNEQLRAAYTSASFRHMSLLDISSDLATDHLLGCDLSIASKHISKPVQEPLVLPEVFGNLNSVMCVEGEAGSGKTVLLKKIAFLWASGCCPLLNRFQLVFYLSLSSTRPDEGLASIICDQLLEKEGSVTEMCVRNIIQQLKNQVLFLLDDYKEICSIPQVIGKLIQKNHLSRTCLLIAVRTNRARDIRRYLETILEIKAFPFYNTVCILRKLFSHNMTRLRKFMVYFGKNQSLQKIQKTPLFVAAICAHWFQYPFDPSFDDVAVFKSYMERLSLRNKATAEILKATVSSCGELALKGFFSCCFEFNDDDLAEAGVDEDEDLTMCLMSKFTAQRLRPFYRFLSPAFQEFLAGMRLIELLDSDRQEHQDLGLYHLKQINSPMMTVSAYNNFLNYVSSLPSTKAGPKIVSHLLHLVDNKESLENISENDDYLKHQPEISLQMQLLRGLWQICPQAYFSMVSEHLLVLALKTAYQSNTVAACSPFVLQFLQGRTLTLGALNLQYFFDHPESLSLLRSIHFPIRGNKTSPRAHFSVLETCFDKSQVPTIDQDYASAFEPMNEWERNLAEKEDNVKSYMDMQRRASPDLSTGYWKLSPKQYKIPCLEVDVNDIDVVGQDMLEILMTVFSASQRIELHLNHSRGFIESIRPALELSKASVTKCSISKLELSAAEQELLLTLPSLESLEVSGTIQSQDQIFPNLDKFLCLKELSVDLEGNINVFSVIPEEFPNFHHMEKLLIQISAEYDPSKLVKLIQNSPNLHVFHLKCNFFSDFGSLMTMLVSCKKLTEIKFSDSFFQAVPFVASLPNFISLKILNLEGQQFPDEETSEKFAYILGSLSNLEELILPTGDGIYRVAKLIIQQCQQLHCLRVLSFFKTLNDDSVVEIAKVAISGGFQKLENLKLSINHKITEEGYRNFFQALDNMPNLQELDISRHFTECIKAQATTVKSLSQCVLRLPRLIRLNMLSWLLDADDIALLNVMKERHPQSKYLTILQKWILPFSPIIQK
modifications: GST tag
B2: GST fusion protein containing the RING domain: GST fusion of XIAP amino acids 338–497 (RING domain) (protein, UniProt P98170 338-497, looked up, fragment)
chain: YINNIHLTHSLEECLVRTTEKTPSLTRRIDDTIFQNPMVQEAIRMGFSFKDIKKIMEEKIQISGSNYKSLEVLVADLVNAQKDSMQDESSQTSLQKEISTEEQLRRLQEEKLCKICMDRNIAIVFVPCGHLVTCKQCAEAVDKCPMCYTVITFKQKIFMS
modifications: GST fusion
B3: GST fusion protein containing only the three BIR domains of XIAP: GST fusion of XIAP amino acids 1–337 (three BIR domains) (protein, UniProt P98170 1-337, looked up, fragment)
chain: MTFNSFEGSKTCVPADINKEEEFVEEFNRLKTFANFPSGSPVSASTLARAGFLYTGEGDTVRCFSCHAAVDRWQYGDSAVGRHRKVSPNCRFINGFYLENSATQSTNSGIQNGQYKVENYLGSRDHFALDRPSETHADYLLRTGQVVDISDTIYPRNPAMYSEEARLKSFQNWPDYAHLTPRELASAGLYYTGIGDQVQCFCCGGKLKNWEPCDRAWSEHRRHFPNCFFVLGRNLNIRSESDAVSSDRNFPNSTNLPRNPSMADYEARIFTFGTWIYSVNKEQLARAGFYALGEGDKVKCFHCGGGLTDWKPSEDPWEQHAKWYPGCKYLLEQKGQE
modifications: GST fusion
B4: His6-S5a: recombinant control protein, His6-S5a proteasome subunit (protein, UniProt P55036 1-377, looked up)
26S proteasome non-ATPase …: MVLESTMVCVDNSEYMRNGDFLPTRLQAQQDAVNIVCHSKTRSNPENNVGLITLANDCEVLTTLTPDTGRILSKLHTVQPKGKITFCTGIRVAHLALKHRQGKNHKMRIIAFVGSPVEDNEKDLVKLAKRLKKEKVNVDIINFGEEEVNTEKLTAFVNTLNGKDGTGSHLVTVPPGPSLADALISSPILAGEGGAMLGLGASDFEFGVDPSADPELALALRVSMEEQRQRQEEEARRAAAASAAEAGIATTGTEDSDDALLKMTISQQEFGRTGLPDLSSMTEEEQIAYAMQMSLQGAEFGQAESADIDASSAMDTSEPAKEEDDYDVMQDPEFLQSVLENLPGVDPNNEAIRNAMGSLASQATKDGKKDKKEEDKK
modifications: His6 tag
notes: recombinant control protein, His6-S5a proteasome subunit
B5: c-IAP-1(BIR): construct comprising the BIR domains of c-IAP-1 (positions 1 to 350) (protein)
chain: MHKTASQRLFPGPSYQNIKSIMEDSTILSDWTNSNKQKMKYDFSCELYRMSTYSTFPAGVPVSERSLARAGFYYTGVNDKVKCFCCGLMLDNWKLGDSPIQKHKQLYPSCSFIQNLVSASLGSTSKNTSPMRNSFAHSLSPTLEHSSLFSGSYSSLSPNPLNSRAVEDISSSRTNPYSYAMSTEEARFLTYHMWPLTFLSPSELARAGFYYIGPGDRVACFACGGKLSNWEPKDDAMSEHRRHFPNCPFLENSLETLRFSISNLSMQTHAARMRTFMYWPSSVPVQPEQLASAGFYYVGRNDDVKCFCCDGGLRCWESGDDPWVEHAKWFPRCEFLIRMKGQEFVDEIQG
modifications: left off: a dimerising Fc or GST

Key:
[1] = tested on: DEVD-pNA hydrolysis activity in 293 cell cytosolic extracts; assay: Cytochrome c/dATP-induced caspase activation (DEVD hydrolysis) in 293 cell cytosolic extracts; type: biochemical, human; settings: for DEVD-pNA hydrolysis, ΔA405 after 15 min: 293 extracts + cytochrome c/dATP, GST-XIAP 0.2 μM, GST controls 2 μM, His6-S5a 5 μM, untreated ≈0.01
Method: (§1) Cells were washed with ice cold buffer A (20 mM Hepes (pH 7.5), 10 mM KCl, 1.5 mM MgCl2, 1 mM EDTA, 1 mM DTT and 0.1 mM PMSF) and suspended in 1 vol buffer A, then incubated on ice for 20 min. 293 cells were disrupted by passage 15× through a 26 gauge needle and Jurkat T cells were disrupted by dounce homogenization in 2 ml using 15 strokes with a pestle B. Cell extracts (10–15 mg total protein/ml) were clarified by centrifugation at 16,000×g for 30 min, then the NaCl concentration was increased by 50 mM. Cytosolic fractions were used immediately or stored frozen at −80° C.
(§2) Caspase activity was assayed by release of either 7-amino-4-trifluoromethyl-coumarin (AFC) or p-nitroanilide (pNA) from benzylyoxycarbonyl-DEVD (SEQ ID NO: 2) or benzylyoxycarbonyl-YVAD (SEQ ID NO: 3) synthetic peptides using a Molecular Devices Spectromax 340 for AFC labeled peptides or Perkin/Elmer LS50B for pNA labeled peptides (see Example II; see, also, Zhou et al., supra, 1997). Cytosolic extracts from 293 cells or Jurkat T cells were used directly (negative control) or were treated with 1 μM cytochrome c and 1 mM dATP or with cytochrome c, dATP and 0.2 μM GST-XIAP. Additional control reactions were performed by substituting 2 μM GST-Bcl-2, GST-Bax, GST-NM23 or GST-CD40 cytosolic domain, or 5 μM His6-S5a protein for GST-XIAP. DEVD-pNA hydrolysis was measured at various times and multiple experiments were performed using several different GST-XIAP preparations.

[2] = tested on: DEVD-pNA hydrolysis activity in Jurkat T cell cytosolic extracts; assay: Cytochrome c/dATP-induced caspase activation (DEVD-pNA hydrolysis) in Jurkat T cell cytosolic extracts; type: biochemical; settings: for DEVD-pNA hydrolysis, ΔA405 after 15 min: untreated ≈0.02; for DEVD-pNA hydrolysis, ΔA405 after 20 min: untreated ≈0.025
Method: as §1, §2

caspase-3 [3] = biological target: T1, caspase-3; assay: GST pull-down binding to caspase-3; settings: glutathione-Sepharose beads, immunoblot
Method: (§3) Following incubation at 4° C. for 60 min, the beads were removed by centrifugation and washed twice with 100 vol 50 mM Tris (pH 7.5), 150 mM KCl, 2 mM DTT and 0.025% Triton-X100, then subjected to SDS-PAGE and immunoblot assay (see Example I.B.3).

caspase-7 [4] = biological target: T2, caspase-7; assay: GST pull-down binding to caspase-7; settings: glutathione-Sepharose beads, immunoblot
Method: as §3

caspase-3 [5] = biological target: T1, caspase-3; assay: Inhibition of purified recombinant caspase-3, DEVD substrate hydrolysis and progress curves; type: biochemical; settings: DEVD-pNA hydrolysis
Method: Purified recombinant caspase-1, caspase-3, caspase-6, caspase-7 or caspase-8 were incubated with DEVD-pNA, either alone or with a 10-fold to 50-fold molar excess of GST-XIAP ([…]) and substrate hydrolysis was measured. Purified active caspase concentrations ranged from 0.1 nM to 10 nM. XIAP concentration ranged from 0.1 nM to 500 nM. Assays were performed in caspase buffer (50 mM Tris, pH 7.4, 100 mM NaCl, 10% sucrose, 5–10 mM DTT, 1 mM EDTA and 0.1% CHAPS).
Equilibria were determined from progress curves when substrate hydrolysis reached a steady-state; slopes were calculated by curve fit analysis using the cricket graph program. Experiments were performed using purified recombinant caspase-3, caspase-6, or caspase-7. DEVD-AFC hydrolysis was measured using 0.1 nM caspase and a range of concentrations (0.2 to 12 μM) of recombinant XIAP (rXIAP). […] Average ratio velocities (vi/vo, where “vi” indicates presence of GST-XIAP and “vo” indicates absence of GST-XIAP) were determined.
Caspase activity was determined essentially as described in Example II, using the benzylyoxycarbonyl-DEVD-AFC (SEQ ID NO: 2) substrate and was assayed at 37° C. using the Perkin-Elmer LS50B fluorometric plate reader in the kinetic mode with excitation and emission wavelengths of 400 nm and 505 nm, respectively. […] Reactions were performed in caspase buffer (50 mM Hepes, 100 mM NaCl, 1 mM EDTA, 0.1% CHAPS, 10% sucrose, 5 mM DTT). The inhibition constant, Ki, was calculated as described (Zhou et al., supra, 1997). Immunoblot analysis was performed as described in Example I.B.3.

caspase-7 [6] = biological target: T2, caspase-7; assay: Inhibition of purified recombinant caspase-7, DEVD substrate hydrolysis and progress curves; type: biochemical; settings: DEVD-pNA hydrolysis
Method: Purified recombinant caspase-1, caspase-3, caspase-6, caspase-7 or caspase-8 were incubated with DEVD-pNA, either alone or with a 10-fold to 50-fold molar excess of GST-XIAP (20 μM) and substrate hydrolysis was measured. Purified active caspase concentrations ranged from 0.1 nM to 10 nM. XIAP concentration ranged from 0.1 nM to 500 nM. Assays were performed in caspase buffer (50 mM Tris, pH 7.4, 100 mM NaCl, 10% sucrose, 5–10 mM DTT, 1 mM EDTA and 0.1% CHAPS).

[7] = listed as GST-fusion containing the RING domain

Molecule | DEVD-pNA hydrolysis, ΔA405 after 15 min [1] | DEVD-pNA hydrolysis, ΔA405 after 15 min [2] | DEVD-pNA hydrolysis, ΔA405 after 20 min [2] | binding of caspase-3 (in words) (caspase-3 [3]) | binding of caspase-7 (in words) (caspase-7 [4]) | inhibition of caspase-3 in vitro (in words) (caspase-3 [5]) | inhibition of caspase-7 in vitro (in words) (caspase-7 [6]) | further results
GST-Bax: recombinant control protein, GST fusion of Bax [reference compound] | ≈ 0.1 | ≈ 0.09 | ≈ 0.1 | – | – | – | – | –
B1 | – | – | – | bound | bound | – | – | –
B2 | – | – | – | – | – | had no effect | had no effect | inhibition of caspase-3 in vitro (in words) (caspase-3 [5]; [7]): no significant effect; inhibition of caspase-7 in vitro (in words) (caspase-7 [6]; [7]): no significant effect
B3 | – | – | – | – | – | potently inhibited | potently inhibited | –
B4 | ≈ 0.1 | ≈ 0.09 | ≈ 0.1 | – | – | – | – | –
B5 | – | – | – | bound | bound | – | – | DEVD hydrolysis in activated 293 cell cytosolic extracts (in words) ([1]; 3 μM, extracts activated 30 min with cytochrome c and dATP): inhibited DEVD hydrolysis
